Results from patent US20220363718A1 (Bicycle, published 2022).
*1 amine or outer side, *2 acyl side, *3 side chain or, on linkers, in order; H or OH if unused. Bridges are numbered along the chain shown (N, C = ends). Where no end group is shown, it is not given here. [ ]: non-standard residue; d: D form. TATA = O=C(CC[*:1])N1CN(C(=O)CC[*:2])CN(C(=O)CC[*:3])C1; Trp(1-Me) = Cn1cc(C[C@H](N)C(=O)O)c2ccccc21; Arg(Me2a) = CN(C)C(=N)NCCC[C@H](N)C(=O)O; Phe(4-F) = N[C@@H](Cc1ccc(F)cc1)C(=O)O; 1Nal = N[C@@H](Cc1cccc2ccccc12)C(=O)O; tBuAla = CC(C)(C)C[C@H](N)C(=O)O; NMeA = CN[C@@H](C)C(=O)O

Target: TSLP (as used in the human PBMC assay) (UniProt Q969D9 29-159)
Experiment: cell-based or functional assay

CCL17 % Inhibition @ 10 µM, 50 pM TSLP	CCL17 % Inhibition @ 10 µM, 666 pM TSLP	CCL17 % Inhibition @ 10 µM, 400 pM TSLP	Binder
89%			Ac-C[NMeA][Trp(1-Me)][tBuAla]QDC[Trp(1-Me)][Arg(Me2a)]G[Phe(4-F)]C (linker 1-7-12 via TATA) [Example 18]
	0%		GTDSAECQWLEDCWRGFCA (linker 7-13-18 via TATA) [Example 45]
	2%		ACQWLEDCWRGFCSSSDQS (linker 2-8-13 via TATA) [Example 59]
	11%		RAPCPDLDPWTCSDWWLCA (linker 4-12-18 via TATA) [Example 187]
	-2%		Ac-ACQWLEDCWRGFCPLD (linker 2-8-13 via TATA) [Example 53]
	43%		CQWLEDCWRGXC (not fully specified; Ac-CQWLEDCWRG[3,4diClPhe]C; 3 Cys cyclised with TATA) [Example 11]
	33%		CQWLEDCWRGXC (not fully specified; Ac-CQWLEDCWRG[Nal2]C; 3 Cys cyclised with TATA) [Example 50]
	14%		CQWLEDCWRGXC (Ac-CQWLEDCWRG[4-ClPhe]C; 3 Cys cyclised with TATA) [Example 14]
	14%		CQWLEDCWRGXC (not fully specified; Ac-CQWLEDCWRG[3-ClPhe]C; 3 Cys cyclised with TATA) [Example 32]
	-42%		DHDCTWNWEYDCWLDCA (linker 4-12-16 via TATA) [Example 200]
	0%		ACRDLDPWTCSSWWLCA (linker 2-10-16 via TATA; not fully specified (C-terminus)) [Example 164]
	-1%		ACRDLDPWTCSSWWLCANV (linker 2-10-16 via TATA) [Example 186]
	-10%		ACDWHWEYDCWLSCEPETGQA (linker 2-10-14 via TATA) [Example 221]
	33%		AHPCADLDPWTCPNWWLCA (linker 4-12-18 via TATA; not fully specified (C-terminus)) [Example 165]
	33%		CQXLEDCWRGXC (not fully specified; Ac-CQ[Nal1]LEDCWRG[4-FPhe]C; 3 Cys cyclised with TATA) [Example 27]
	47%		ACRDLDPWTCSSWWLCADGLYDA (linker 2-10-16 via TATA) [Example 193]
	-4%		SHVCRDLDPWTCDSWWLCA (linker 4-12-18 via TATA) [Example 188]

CCL17 % Inhibition @ 10 µM, 50 pM TSLP	CCL17 % Inhibition @ 10 µM, 666 pM TSLP	CCL17 % Inhibition @ 10 µM, 400 pM TSLP	Binder
	-18%		Ac-CQWLEDCWRGFC (linker 1-7-12 via TATA) [Example 79]
	24%		ACTWLEDCWRGFCADS (linker 2-8-13 via TATA) [Example 63]
	36%		YATTQVCRDLDPWTCSSWWLCA (linker 7-15-21 via TATA) [Example 171]
	43%		CQWLEDCWRGXC (not fully specified; Ac-CQWLEDCWRG[3-MePhe]C; 3 Cys cyclised with TATA) [Example 74]
41%			CQWLEDCWRGXC (not fully specified; Ac-CQWLEDCWRG[3,4diFPhe]C; 3 Cys cyclised with TATA) [Example 22]
	-2%		ACHWLEDCWRGFCHLE (linker 2-8-13 via TATA; not fully specified (C-terminus)) [Example 75]
	-3%		ACDWHWEYDCWLSCA (linker 2-10-14 via TATA) [Example 199]
	-7%		CQWLEDCWRGXC (not fully specified; Ac-CQWLEDCWRG[Nal1]C; 3 Cys cyclised with TATA) [Example 47]
	33%		ACQWLEDCWRGFCA (linker 2-8-13 via TATA) [Example 68]
71%			CQWLEDCWRGXC (not fully specified; Ac-CQWLEDCWRG[4F3ClPhe]C; 3 Cys cyclised with TATA) [Example 8]
	-11%		SPPCVWLDDCWRGFCA (linker 4-10-15 via TATA) [Example 73]
	0%		ACTWLDDCWRGFCA (linker 2-8-13 via TATA; not fully specified (C-terminus)) [Example 76]
	40%		TMEYRDCQWLEDCWRGFCA (linker 7-13-18 via TATA) [Example 56]
61%		62%	Ac-C[NMeA][1Nal][tBuAla]QDC[Trp(1-Me)][Arg(Me2a)]G[Phe(4-F)]C[dA] (linker 1-7-12 via TATA; not fully specified (C-terminus)) [Example 29]
	52%		Ac-CQW[tBuAla]EDCWRGFC (linker 1-7-12 via TATA; not fully specified (C-terminus); printed as Ac-CQW[tBuA]EDCWRGFC) [Example 44]
< 20%	47%		ACQWLEDCWRGFCADGDML (linker 2-8-13 via TATA) [Example 42]
71%			Ac-C[NMeA][1Nal][tBuAla]QDC[Trp(1-Me)][Arg(Me2a)]G[Phe(4-F)]C (linker 1-7-12 via TATA; not fully specified (C-terminus)) [Example 25]
